Experimental data taken from patent US20240336672A1.
Read-outs that look alike come from different tables or passages of the source.

Columns and labels:
[1] = target: T1, SARS-CoV-2 kappa variant B.1.617.1/3 RBD domain (SARS-CoV-2); assay: ELISA; conditions: remark: other sources report otherwise
[2] = target: SARS-CoV-2 delta plus variant RBD (SARS-CoV-2); assay: ELISA; conditions: remark: other sources report otherwise
[3] = target: T2, SARS-CoV-2 omicron variant B.1.1.529 RBD domain (SARS-CoV-2); assay: ELISA; unit from paragraph 452, none printed in the heatmap; conditions: remark: other sources report otherwise
α (SARS-CoV-2) = assay: flow cytometry (Mock 2.5)
ι (SARS-CoV-2) = assay: flow cytometry (Mock 2.5)
γ (SARS-CoV-2) = assay: flow cytometry (Mock 2.5)
[4] = target: SARS-CoV-2 δ variant spike protein, cell-expressed (SARS-CoV-2); assay: flow cytometry (Mock 2.5)
κ (SARS-CoV-2) = assay: flow cytometry (Mock 2.5)
β (SARS-CoV-2) = assay: flow cytometry (Mock 2.5)
ε (SARS-CoV-2) = assay: flow cytometry (Mock 2.5)
[5] = target: T3, SARS-CoV-2 omicron variant B.1.1.529 Spike ectodomain (tri-S, HexaPro) (SARS-CoV-2), P0DTC2; assay: tri-S/ACE2 blocking ELISA [B]; conditions: remark: other sources report otherwise
[6] = target: T4, SARS-CoV-2 delta variant B.1.617.2/3 RBD domain (SARS-CoV-2); assay: ELISA; design: unit not given beside the values; conditions: remark: other sources report otherwise
[7] = target: T1, SARS-CoV-2 kappa variant B.1.617.1/3 …; assay: ELISA; design: unit not given beside the values; conditions: remark: other sources report otherwise
[8] = target: SARS-CoV-2 delta plus variant RBD (SARS-CoV-2); assay: ELISA; design: unit not given beside the values; conditions: remark: other sources report otherwise
[9] = target: T3, SARS-CoV-2 omicron variant B.1.1.529 …; assay: competition ELISA, biotinylated tri-S to immobilized ACE2 ectodomain; conditions: remark: other sources report otherwise
[10] = target: T4, SARS-CoV-2 delta variant B.1.617.2/3 …; assay: RBD-ACE2 competition ELISA; design: unit not given beside the values; conditions: remark: other sources report otherwise
[11] = target: T1, SARS-CoV-2 kappa variant B.1.617.1/3 …; assay: RBD-ACE2 competition ELISA; design: unit not given beside the values; conditions: remark: other sources report otherwise
[12] = target: SARS-CoV-2 delta plus variant RBD (SARS-CoV-2); assay: RBD-ACE2 competition ELISA; design: unit not given beside the values; conditions: remark: other sources report otherwise
[13] = target: T4, SARS-CoV-2 delta variant B.1.617.2/3 …; assay: ELISA; conditions: remark: other sources report otherwise
[14] = target: T4, SARS-CoV-2 delta variant B.1.617.2/3 …; assay: competition ELISA, biotinylated RBD to immobilized ACE2 ectodomain; conditions: remark: other sources report otherwise
[15] = target: T2, SARS-CoV-2 omicron variant B.1.1.529 …; assay: as above; conditions: remark: other sources report otherwise
[16] = target: T1, SARS-CoV-2 kappa variant B.1.617.1/3 …; assay: as above; conditions: remark: other sources report otherwise
[17] = target: SARS-CoV-2 Omicron subvariant BA.2 RBD (SARS-CoV-2); assay: as above; conditions: remark: other sources report otherwise
[18] = target: SARS-CoV-2 delta plus variant RBD (SARS-CoV-2); assay: as above; conditions: remark: other sources report otherwise
[19] = target: T4, SARS-CoV-2 delta variant B.1.617.2/3 …; assay: ELISA; design: unit not given beside the values; conditions: remark: other sources report otherwise; remark: listed apart in the source
[20] = target: T1, SARS-CoV-2 kappa variant B.1.617.1/3 …; assay: ELISA; design: unit not given beside the values; conditions: remark: other sources report otherwise; remark: listed apart in the source
[21] = target: SARS-CoV-2 delta plus variant RBD (SARS-CoV-2); assay: ELISA; design: unit not given beside the values; conditions: remark: other sources report otherwise; remark: listed apart in the source
[22] = target: T2, SARS-CoV-2 omicron variant B.1.1.529 …; assay: ELISA; design: unit not given beside the values; conditions: remark: other sources report otherwise
[23] = target: T3, SARS-CoV-2 omicron variant B.1.1.529 …; assay: ELISA; design: unit not given beside the values; conditions: remark: other sources report otherwise
[24] = target: T4, SARS-CoV-2 delta variant B.1.617.2/3 …; assay: RBD/ACE2 blocking ELISA; conditions: remark: other sources report otherwise
[25] = target: T1, SARS-CoV-2 kappa variant B.1.617.1/3 …; assay: RBD/ACE2 blocking ELISA; conditions: remark: other sources report otherwise
[26] = target: SARS-CoV-2 delta plus variant RBD (SARS-CoV-2); assay: RBD/ACE2 blocking ELISA; conditions: remark: other sources report otherwise
[27] = target: T4, SARS-CoV-2 delta variant B.1.617.2/3 …; assay: RBD-ACE2 competition ELISA [letter not given]; conditions: remark: other sources report otherwise
[28] = target: T3, SARS-CoV-2 omicron variant B.1.1.529 …; conditions: remark: other sources report otherwise
[29] = target: T3, SARS-CoV-2 omicron variant B.1.1.529 …; assay: ELISA; unit from paragraph 452, none printed in the heatmap; conditions: remark: other sources report otherwise

Row | Binder | OD405nm [1] | OD405nm [2] | EC50 [3] [µg/mL] | AUC of blocking [5] | AUC (RBD block.) [10] | AUC (RBD block.) [11] | AUC (RBD block.) [12] | OD405nm [13] | AUC (RBD bind.) [19] | AUC (RBD bind.) [20] | AUC (RBD bind.) [21] | AUC [22] | AUC [23] | also measured
1 | Cilgavimab (antibody, V domains shown) VH: EVQLVESGGGLVKPGGSLRLSCAASGFTFRDVWMSWVRQAPGKGLEWVGRIKSKIDGGTTDYAAPVKGRFTISRDDSKNTLYLQMNSLKTEDTAVYYCTTAGSYYYDTVGPGLPEGKFDYWGQGTLVTVSS VL: not shown | 3.7 | 3.5 | 0.027 | – | – | – | – | – | – | – | – | – | – | –
2 | Imdevimab (antibody, V domains shown) VH: QVQLVESGGGVVQPGRSLRLSCAASGFTFSNYAMYWVRQAPGKGLEWVAVISYDGSNKYYADSVKGRFTISRDNSKNTLYLQMNSLRTEDTAVYYCASGSDYGDYLLVYWGQGTLVTVSS VL: QSALTQPASVSGSPGQSITISCTGTSSDVGGYNYVSWYQQHPGKAPKLMIYDVSKRPSGVSNRFSGSKSGNTASLTISGLQSEDEADYYCNSLTSISTWVFGGGTKLTVL | – | – | – | – | – | – | – | – | – | – | – | – | – | log10 ΔgMFI (α (SARS-CoV-2)): 4.4; log10 ΔgMFI (ι (SARS-CoV-2)): 4.9; log10 ΔgMFI (γ (SARS-CoV-2)): 4.6; log10 ΔgMFI [4]: 4.5; log10 ΔgMFI (κ (SARS-CoV-2)): 4.7; log10 ΔgMFI (β (SARS-CoV-2)): 3.9; log10 ΔgMFI (ε (SARS-CoV-2)): 4.5
3 | Cv2.3194 (recombinant human IgG1) (antibody) heavy: EVQLVESGGGLIQPGGSLRLSCAASGITVTSNYMSWVRQAPGKGLEWVSVIYPGGSTFYADSVKGRFTISRDNSKNTLYLQMNSLRAEDTAVYYCARDLVVYGMDVWGQGTTVTVSSASTKGPSVFPLAPSSKSTSGGTAALGCLVKDYFPEPVTVSWNSGALTSGVHTFPAVLQSSGLYSLSSVVTVPSSSLGTQTYICNVNHKPSNTKVDKKVEPKSCDKTHTCPPCPAPELLGGPSVFLFPPKPKDTLMISRTPEVTCVVVDVSHEDPEVKFNWYVDGVEVHNAKTKPREEQYNSTYRVVSVLTVLHQDWLNGKEYKCKVSNKALPAPIEKTISKAKQPREPQVYTLPPSRDELTKNQVSLTCLVKGFYPSDIAVEWESNGQPENNYKTTPPVLDSDGSFFLYSKLTVDKSRWQQGNVFSCSVMHEALHNHYTQKSLSLSPGK light: EIVLTQSPGTLSLSPGERATLSCRASQSVSSSYLAWYQQKPGQAPRLLIYGASSRATGIPGRFSGSGSGTDFTLTISRLEPEDFAIYYCQQGVTFGGGTKVEIKRTVAAPSVFIFPPSDEQLKSGTASVVCLLNNFYPREAKVQWKVDNALQSGNSQESVTEQDSKDSTYSLSSTLTLSKADYEKHKVYACEVTHQGLSSPVTKSFNRGEC | 3.6 | 3.5 | – | 76 | 102 | 128 | 141 | 3.4 | 13 | 13 | 13 | 10 | 12 | AUC [6]: 3; AUC [7]: 4; AUC [8]: 3; IC50 [9]: 0.876 µg/mL; IC90 [9]: 1.2 µg/mL; IC50 [14]: 0.827 µg/mL; IC90 [14]: 1.31 µg/mL; IC50 [15]: 6.53 µg/mL; IC90 [15]: 37.6 µg/mL; IC50 [16]: 0.469 µg/mL; IC90 [16]: 1.1 µg/mL; IC50 [17]: 2.71 µg/mL; IC90 [17]: 29.1 µg/mL; IC50 [18]: 0.28 µg/mL; IC90 [18]: 0.967 µg/mL; % binding inhibition [24]: 94%; % binding inhibition [25]: 92%; % binding inhibition [26]: 94%
4 | Cv2.5213 (recombinant human IgG1) (antibody) heavy: EVQLVESGGGLIQPGGSLRLSCAASGFTVSSNYMSWVRQAPGKGLEWVSLIYSGGSTYYADSVKGRFTISRDNSKNTLYLQMNSLRAEDTAVYYCARDLNYYGMDVWGQGATVTVSSASTKGPSVFPLAPSSKSTSGGTAALGCLVKDYFPEPVTVSWNSGALTSGVHTFPAVLQSSGLYSLSSVVTVPSSSLGTQTYICNVNHKPSNTKVDKKVEPKSCDKTHTCPPCPAPELLGGPSVFLFPPKPKDTLMISRTPEVTCVVVDVSHEDPEVKFNWYVDGVEVHNAKTKPREEQYNSTYRVVSVLTVLHQDWLNGKEYKCKVSNKALPAPIEKTISKAKQPREPQVYTLPPSRDELTKNQVSLTCLVKGFYPSDIAVEWESNGQPENNYKTTPPVLDSDGSFFLYSKLTVDKSRWQQGNVFSCSVMHEALHNHYTQKSLSLSPGK light: not shown | – | – | – | 10 | 91 | 150 | 33 | – | 13 | 13 | 12 | 1 | 2 | IC50 (read off the curve) [27]: 1 µg/mL
5 | Adintrevimab (antibody, V domains shown) VH: EVQLVESGGGLVKPGGSLRLSCAASGFTFSSYYMNWVRQAPGKGLEWVSSISEDGYSTYYPDSLKGRFTISRDSAKNSLYLQMNSLRADDTAVYYCARDFSGHTAWAGTGFEYWGQGTLVTVSS VL: QSVLTQPPSVSGAPGQRITISCTGSSSNIGAGYDVHWYQQLPGTAPKLLIYGSSSRNSGVPDRFSGSKSGTSASLAITGLQAEDEADYYCQSYDSSLSVLYTFGTGTKVTVL | 3.6 | 3.4 | 0.056 | – | – | – | – | 3.4 | – | – | – | – | – | IC50 [28]: > 2 µg/mL; EC50 [29]: 0.009 µg/mL
